± gives the standard error. Fewer inactive variants are shown than the library holds.
B1: glmS ribozyme (parent)
chain: AUAAAAGCGCCAGAACUACAGAAAUGUAGUUGACGAGGAGGAGGUUUAUCGAAUUUUCGGCGGAUGCCUCCAAA

Tests used:
Details in all cases: with glucosamine-6-phosphate
glucosamine-6-phosphate [1] = variants of: B1; experiment: self-cleavage kobs at 40 uM GlcN6P; higher = faster cleavage; RNA array
Outline: (§1)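 Tiles of sequenced MiSeq chips were imaged over ~14 h at 37 °C. On them, barcoded ribozyme variants had been transcribed in situ by E. coli RNA polymerase and were tracked via a hybridised Cy3 probe while glucosamine-6-phosphate (40 μM to 10 mM) in HEPES/KCl/Mg(OAc)2 buffer flowed in. Per-tile medians, normalised to baseline and to non-cleaving reference variants, were fit to one- or two-exponential decays for kobs, and weighted Michaelis–Menten fits gave kcat and KM.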

glucosamine-6-phosphate [2] = variants of: B1; experiment: self-cleavage kobs at 160 uM GlcN6P; higher = faster cleavage; RNA array
Outline: as §1

glucosamine-6-phosphate [3] = variants of: B1; experiment: self-cleavage kobs at 640 uM GlcN6P; higher = faster cleavage; RNA array
Outline: as §1

glucosamine-6-phosphate [4] = variants of: B1; experiment: self-cleavage kobs at 2500 uM GlcN6P; higher = faster cleavage; RNA array
Outline: as §1

glucosamine-6-phosphate [5] = variants of: B1; experiment: self-cleavage kobs at 10000 uM GlcN6P; higher = faster cleavage; RNA array
Outline: as §1

Row | Variant | self-cleavage kobs at 40 uM GlcN6P (glucosamine-6-phosphate [1]) [s⁻¹] | self-cleavage kobs at 160 uM GlcN6P (glucosamine-6-phosphate [2]) [s⁻¹] | self-cleavage kobs at 640 uM GlcN6P (glucosamine-6-phosphate [3]) [s⁻¹] | self-cleavage kobs at 2500 uM GlcN6P (glucosamine-6-phosphate [4]) [s⁻¹] | self-cleavage kobs at 10000 uM GlcN6P (glucosamine-6-phosphate [5]) [s⁻¹]
1 | G32U G62U | < 1e-05 | < 1e-05 | < 1e-05 | < 1e-05 | < 1e-05
2 | A36C C58A U65A C68G | 0.000139 ± 4.3e-05 | – | – | 0.000116 ± 2.7e-05 | –
3 | G35U G66U | < 1e-05 | < 1e-05 | < 1e-05 | < 1e-05 | < 1e-05
4 | G35U A42G | < 1e-05 | < 1e-05 | < 1e-05 | < 1e-05 | < 1e-05
5 | A33C C68A | < 1e-05 | – | < 1e-05 | < 1e-05 | < 1e-05
6 | A33G A48G C71U | < 1e-05 | < 1e-05 | – | < 1e-05 | < 1e-05
7 | A36C G62A | < 1e-05 | < 1e-05 | – | < 1e-05 | –
8 | C34U G40C G51U C61A G63U | < 1e-05 | – | – | – | –
9 | C34U G40A | < 1e-05 | – | – | < 1e-05 | < 1e-05
10 | A33U G43U | < 1e-05 | < 1e-05 | – | < 1e-05 | < 1e-05
11 | A33G A36G A39C U45A | < 1e-05 | < 1e-05 | – | < 1e-05 | < 1e-05
12 | A33U A39U G44C G63C C67G | < 1e-05 | – | – | – | < 1e-05
13 | G32U U46C G51U | < 1e-05 | – | – | – | < 1e-05
14 | C34A G63U | < 1e-05 | < 1e-05 | < 1e-05 | – | < 1e-05
15 | G35A C68A | < 1e-05 | < 1e-05 | < 1e-05 | < 1e-05 | –
16 | A33U A36C C58G U69C | 4.07e-05 ± 2e-05 | 7.32e-05 ± 1.9e-05 | – | – | –
17 | G35U U65G | < 1e-05 | < 1e-05 | < 1e-05 | < 1e-05 | < 1e-05
18 | C34A A36G A39C | < 1e-05 | – | – | < 1e-05 | < 1e-05
19 | A33G G51U | < 1e-05 | – | < 1e-05 | – | < 1e-05
20 | A33C G43A G44A | < 1e-05 | – | – | – | < 1e-05
21 | A33C C58A G62A | < 1e-05 | – | – | – | –
22 | A33C A64C C68U | < 1e-05 | < 1e-05 | < 1e-05 | < 1e-05 | < 1e-05

Row | Variant | self-cleavage kobs at 40 uM GlcN6P (glucosamine-6-phosphate [1]) [s⁻¹] | self-cleavage kobs at 160 uM GlcN6P (glucosamine-6-phosphate [2]) [s⁻¹] | self-cleavage kobs at 640 uM GlcN6P (glucosamine-6-phosphate [3]) [s⁻¹] | self-cleavage kobs at 2500 uM GlcN6P (glucosamine-6-phosphate [4]) [s⁻¹] | self-cleavage kobs at 10000 uM GlcN6P (glucosamine-6-phosphate [5]) [s⁻¹]
23 | G32U U46G C61U | < 1e-05 | – | – | < 1e-05 | < 1e-05
24 | G35C G59U C61U | < 1e-05 | < 1e-05 | < 1e-05 | < 1e-05 | < 1e-05
25 | C34U A42C | < 1e-05 | – | < 1e-05 | < 1e-05 | < 1e-05
26 | G35A A64G C70G | < 1e-05 | – | – | – | < 1e-05
27 | G35U U54C U56G A64U C70U | < 1e-05 | – | – | – | < 1e-05
28 | G35C A48C | < 1e-05 | < 1e-05 | < 1e-05 | < 1e-05 | < 1e-05
29 | G35C A48U | < 1e-05 | – | – | < 1e-05 | < 1e-05
30 | A33U A42C U47G U54A | < 1e-05 | – | < 1e-05 | < 1e-05 | < 1e-05
31 | A33G G37U U46G A52G G62A | < 1e-05 | – | – | – | –
32 | G35U C58U | < 1e-05 | < 1e-05 | – | < 1e-05 | < 1e-05
33 | G35U G60U | < 1e-05 | < 1e-05 | < 1e-05 | < 1e-05 | < 1e-05
34 | G35U G60C | < 1e-05 | < 1e-05 | < 1e-05 | < 1e-05 | < 1e-05
35 | A33C G37C | < 1e-05 | – | < 1e-05 | < 1e-05 | –
36 | G35A U56A G63A | < 1e-05 | – | – | – | < 1e-05
37 | C34U G59U | < 1e-05 | < 1e-05 | < 1e-05 | < 1e-05 | < 1e-05
38 | C34U G59C | < 1e-05 | < 1e-05 | < 1e-05 | < 1e-05 | < 1e-05
39 | G35U U69C | < 1e-05 | < 1e-05 | – | < 1e-05 | < 1e-05
40 | G35C G63A | < 1e-05 | < 1e-05 | < 1e-05 | – | < 1e-05
41 | C34A A39G A64C | < 1e-05 | – | < 1e-05 | < 1e-05 | < 1e-05
42 | C34A C68U | < 1e-05 | < 1e-05 | < 1e-05 | < 1e-05 | < 1e-05
43 | G35A C50G U55A C61G | 0.000205 ± 5.1e-05 | – | – | – | 0.000255 ± 4e-05
44 | A33U C61U C70U | < 1e-05 | – | – | < 1e-05 | –

Row | Variant | self-cleavage kobs at 40 uM GlcN6P (glucosamine-6-phosphate [1]) [s⁻¹] | self-cleavage kobs at 160 uM GlcN6P (glucosamine-6-phosphate [2]) [s⁻¹] | self-cleavage kobs at 640 uM GlcN6P (glucosamine-6-phosphate [3]) [s⁻¹] | self-cleavage kobs at 2500 uM GlcN6P (glucosamine-6-phosphate [4]) [s⁻¹] | self-cleavage kobs at 10000 uM GlcN6P (glucosamine-6-phosphate [5]) [s⁻¹]
45 | C34A | < 1e-05 | < 1e-05 | < 1e-05 | < 1e-05 | –
46 | C34G | < 1e-05 | < 1e-05 | < 1e-05 | < 1e-05 | < 1e-05
47 | C34A U45C | < 1e-05 | < 1e-05 | < 1e-05 | < 1e-05 | < 1e-05
48 | A36C G41C U54G G66C C68G | < 1e-05 | – | – | – | –
49 | C34U A64C | < 1e-05 | < 1e-05 | – | – | < 1e-05
50 | C34U C61A C67G | 0.00044 ± 0.00014 | – | 0.000318 ± 0.00013 | – | –
51 | A33U G59C | < 1e-05 | – | < 1e-05 | – | < 1e-05
52 | A33U A42U C61U | < 1e-05 | – | – | – | –
53 | A36C A39G G60U | < 1e-05 | – | < 1e-05 | < 1e-05 | –
54 | A33C G60U | < 1e-05 | < 1e-05 | < 1e-05 | – | < 1e-05
55 | A33U A36G G41C A53G | < 1e-05 | – | – | – | < 1e-05
56 | G35C A42U U45C G59U | < 1e-05 | – | – | – | –
57 | G35C C71U | < 1e-05 | – | < 1e-05 | < 1e-05 | < 1e-05
58 | A33G A64U | < 1e-05 | – | – | – | < 1e-05
59 | C34G C50U | < 1e-05 | – | < 1e-05 | – | < 1e-05
60 | G32U G59U C71G | < 1e-05 | – | < 1e-05 | – | –
61 | G35U G40U | < 1e-05 | < 1e-05 | < 1e-05 | < 1e-05 | < 1e-05
62 | C34G G40C | < 1e-05 | – | < 1e-05 | – | < 1e-05
63 | G35U G63U G66C C67A | < 1e-05 | – | – | – | < 1e-05
64 | G35U G41U C70U | < 1e-05 | – | – | – | < 1e-05
65 | A33C G51A | < 1e-05 | – | – | < 1e-05 | < 1e-05
66 | A33G G63A U65G | < 1e-05 | – | – | – | –

Row | Variant | self-cleavage kobs at 40 uM GlcN6P (glucosamine-6-phosphate [1]) [s⁻¹] | self-cleavage kobs at 160 uM GlcN6P (glucosamine-6-phosphate [2]) [s⁻¹] | self-cleavage kobs at 640 uM GlcN6P (glucosamine-6-phosphate [3]) [s⁻¹] | self-cleavage kobs at 2500 uM GlcN6P (glucosamine-6-phosphate [4]) [s⁻¹] | self-cleavage kobs at 10000 uM GlcN6P (glucosamine-6-phosphate [5]) [s⁻¹]
67 | A36C C70A | 3.5e-05 ± 1.7e-05 | 0.000113 ± 3.7e-05 | 6.93e-05 ± 3e-05 | – | –
68 | C34A G41U G62A | < 1e-05 | – | – | – | < 1e-05
69 | A33U G44U A52U | < 1e-05 | < 1e-05 | < 1e-05 | < 1e-05 | –
70 | G35A U69A | < 1e-05 | < 1e-05 | < 1e-05 | < 1e-05 | –
71 | C34U U54A | < 1e-05 | – | < 1e-05 | – | < 1e-05
72 | A33U G51C G60U G63U | < 1e-05 | – | – | – | –
73 | G35A G66U | < 1e-05 | < 1e-05 | – | – | –
74 | A33G G40U G43A U49A C58U | < 1e-05 | – | – | – | < 1e-05
75 | C34G G38A C58U | < 1e-05 | – | – | – | –
76 | A33C A64C | < 1e-05 | < 1e-05 | < 1e-05 | < 1e-05 | < 1e-05
77 | G35U A64C C68A | < 1e-05 | – | – | – | –
78 | C34A U56A | < 1e-05 | < 1e-05 | < 1e-05 | < 1e-05 | –
79 | G35U G66C C67U | < 1e-05 | – | – | – | –
80 | G35C U54A | < 1e-05 | – | < 1e-05 | < 1e-05 | < 1e-05
81 | A33C G59C | < 1e-05 | < 1e-05 | < 1e-05 | < 1e-05 | < 1e-05
82 | A33G A39U | < 1e-05 | – | – | < 1e-05 | < 1e-05
83 | A33U C50A C68G | 4.36e-05 ± 2e-05 | – | – | – | –
84 | G35C C50U C70G | < 1e-05 | – | – | – | –
85 | A33U A36C G59C | < 1e-05 | – | – | – | < 1e-05
86 | A33C G43C C58A U69A | < 1e-05 | – | < 1e-05 | – | < 1e-05
